# From PMC10443974
# Target: unmodified, wild-type (WT) human FcRn (neonatal Fc receptor) (human) (UniProt P55899)
# Test: FcRn affinity chromatography with pH monitor
# Sequence of UniProt P55899 (P55899 24-297, chain 1 of 2): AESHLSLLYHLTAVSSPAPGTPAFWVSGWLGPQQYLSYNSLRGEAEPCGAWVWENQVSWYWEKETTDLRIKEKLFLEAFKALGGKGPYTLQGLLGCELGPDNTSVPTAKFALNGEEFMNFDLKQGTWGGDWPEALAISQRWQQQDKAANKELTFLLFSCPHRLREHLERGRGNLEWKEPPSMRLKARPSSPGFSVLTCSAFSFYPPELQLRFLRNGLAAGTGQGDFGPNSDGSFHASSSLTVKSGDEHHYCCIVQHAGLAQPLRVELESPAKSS
# Sequence of UniProt P55899 (P61769 21-119, chain 2 of 2, further chain): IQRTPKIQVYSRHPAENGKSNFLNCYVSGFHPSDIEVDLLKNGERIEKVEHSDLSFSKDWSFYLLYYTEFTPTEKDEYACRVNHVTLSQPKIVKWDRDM
row,Substance,FcRn dissociation pH (mean) [pH]
1,NIST mAb (reference material RM8671) (antibody),7.22
2,adalimumab (antibody),7.39
3,briakinumab (antibody),7.81
4,cetuximab (antibody),7.25
5,cusatuzumab (antibody),7.12
6,durvalumab (antibody),7.28
7,margetuximab (antibody),7.34
8,rituximab (antibody),7.43
